US20060019915A1, “Method to modulate the immune system with a novel guanine nucleotide exchange factor” (priority 2004, published 2006)

B1: IBP 313-631: IBP mutant containing the putative DH domain alone, GST fusion protein (protein, UniProt Q9H4E7 313-631, looked up, fragment)
chain: LQAEGKTSLHKDLKQKRREQREQRERRRAAKEEELLRLQQLQEEKERKLQELELLQEAQRQAERLLQEEEERRRSQHRELQQALEGQLREAEQARASMQAEMELKEEEAARQRQRIKELEEMQQRLQEALQLEVKARRDEESVRIAQTRLLEEEEEKLKQLMQLKEEQERYIERAQQEKEELQQEMAQQSRSLQQAQQQLEEVRQNRQRADEDVEAAQRKLRQASTNVKHWNVQMNRLMHPIEPGDKRPVTSSSFSGFQPPLLAHRDSSLKRLTRWGSQGNRTPSPNSNEQQKSLNGGDEAPAPASTPQEDKLDPAPEN
modifications: GST fusion
notes: IBP mutant containing the putative DH domain alone, GST fusion protein

Tests used:
Rac1 = target: T1, Rac1 (Homo sapiens, UniProt P63000); assay: In vitro GDP release assay (filter-binding) on Rac1; format: biochemical; settings: for dissociation of [3H]GDP from Rac1 (GEF activity): purified GST-IBP fusion protein, 4 pmol, [3H]GDP-loaded GST-Rac1
T1 construct: purchased Calbiochem-Novabiochem; host or cells: bacteria
Procedure: A-C, stimulation of GDP dissociation from Rho GTPases by wild-type or mutant IBP proteins. [^3H]GDP-loaded Rac1 (A), Cdc42 (B), or RhoA (C) was incubated with GST alone or with either wild-type or mutant GST-IBP fusion proteins, as indicated. The exchange reactions were stopped at the indicated time points, and the amount of [^3H]GDP remaining bound to the GTPases was then measured by filtering the quenched reaction samples over nitrocellulose membranes followed by scintillation counting of the membrane-bound radioactivity. The percentage of [^3H]GDP remaining bound at each time point was evaluated relative to the amount of radioactivity remaining at time 0 of the respective reaction, which was set to 100% in each experiment. The results shown are representative of at least three independent assays. D, regulation of IBP GEF activity by Lck and PI(3,4,5)P3. [^3H]GDP-loaded Rac1 was incubated with Lck-phosphorylated wild-type HA-IBP (IBP+Lck) in the presence or absence of PI(3,4,5)P3 (1 μM) for 0 or 40 min. Reactions without IBP (Lck and Lck^+ PI(3,4,5)P3) were simultaneously carried out as control. The exchange reactions were then stopped, and the amount of [^3H]GDP remaining bound to Rac1 was measured by filter-binding method as described for A-C. The percentage of [^3H]GDP remaining bound after incubation for 40 min was evaluated relative to the amount of radioactivity remaining at time 0 of the respective reaction, which was set to 100% in each experiment. The results shown are representative of at least three independent assays.
The in vitro GDP release assays were carried out by filter-binding method as described previously (28-31). To prepare [3H]GDP-loaded GTPases, 40 pmol of bacterially expressed and purified GST-Rac1, GST-Cdc42, or His-RhoA (Calbiochem-Novabiochem) was incubated with 1 μM [3H]GDP in 100 μl of a binding buffer (10 mM HEPES, pH 7.5, 100 mM NaCl, 5 mM MgCl2, 1 mM EGTA, 1 mM dithiothreitol, 50 μg/ml bovine serum albumin) for 60 min at 30° C. The nucleotide exchange reaction was initiated by adding 100 μM nonradioactive GTP and 4 pmol of purified GST alone or GST-IBP fusion proteins (or when appropriate, 4 pmol of purified wild-type HA-IBP either non-phosphorylated or in vitro phosphorylated by purified Lck and cold ATP) to the [3H]GDP-loaded GTPase and then equally splitting and incubating the reaction mixture for the indicated time periods at room temperature. […] The amount of [3H]GDP remaining bound to the GTPases was determined by filtering the quenched reaction samples over nitrocellulose membranes followed by extensive washing of the filters and then quantification of the membrane-bound radioactivity by scintillation counting.

Cdc42 = target: T2, Cdc42 (Homo sapiens, UniProt P60953); assay: In vitro GDP release assay (filter-binding) on Cdc42; format: biochemical; settings: purified GST-IBP fusion protein, 4 pmol; [3H]GDP-loaded GST-Cdc42
T2 construct: purchased Calbiochem-Novabiochem; host or cells: bacteria
T2 sequence (P60953 whole entry, species assumed, the tested form may be a part): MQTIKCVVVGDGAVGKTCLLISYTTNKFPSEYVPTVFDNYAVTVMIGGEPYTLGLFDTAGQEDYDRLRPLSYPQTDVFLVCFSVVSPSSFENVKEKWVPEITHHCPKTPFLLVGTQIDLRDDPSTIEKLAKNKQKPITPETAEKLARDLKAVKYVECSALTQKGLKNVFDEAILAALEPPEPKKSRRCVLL
Procedure: A-C, stimulation of GDP dissociation from Rho GTPases by wild-type or mutant IBP proteins. [^3H]GDP-loaded Rac1 (A), Cdc42 (B), or RhoA (C) was incubated with GST alone or with either wild-type or mutant GST-IBP fusion proteins, as indicated. The exchange reactions were stopped at the indicated time points, and the amount of [^3H]GDP remaining bound to the GTPases was then measured by filtering the quenched reaction samples over nitrocellulose membranes followed by scintillation counting of the membrane-bound radioactivity. The percentage of [^3H]GDP remaining bound at each time point was evaluated relative to the amount of radioactivity remaining at time 0 of the respective reaction, which was set to 100% in each experiment. The results shown are representative of at least three independent assays. D, regulation of IBP GEF activity by Lck and PI(3,4,5)P3. [^3H]GDP-loaded Rac1 was incubated with Lck-phosphorylated wild-type HA-IBP (IBP+Lck) in the presence or absence of PI(3,4,5)P3 (1 μM) for 0 or 40 min. […] The exchange reactions were then stopped, and the amount of [^3H]GDP remaining bound to Rac1 was measured by filter-binding method as described for A-C. The percentage of [^3H]GDP remaining bound after incubation for 40 min was evaluated relative to the amount of radioactivity remaining at time 0 of the respective reaction, which was set to 100% in each experiment. […]

| Molecule | dissociation of [3H]GDP from Rac1 (GEF activity) (Rac1) | dissociation of [3H]GDP from Cdc42 (GEF activity) (Cdc42) | GEF activity of Lck-phosphorylated wild-type IBP on Rac1 on addition of PI(3,4,5)P3 (Rac1; PI(3,4,5)P3 1 μM, 40 min) | ability of wild-type IBP to promote GDP-GTP exchange on Rac1 after phosphorylation by Lck (Rac1; purified HA-IBP phosphorylated in vitro by purified Lck, 40 min) |
| --- | --- | --- | --- | --- |
| wild-type IBP: purified recombinant full-length human IBP (IRF-4 Binding Protein), GST fusion or HA-tagged | did not stimulate the dissociation | did not stimulate the dissociation |  |  |
| phosphatidylinositol 3,4,5-triphosphate [PI(3,4,5)P3, reference compound] |  |  | stimulated |  |
| Lck: purified Lck kinase, Src family protein tyrosine kinase, used to phosphorylate IBP in vitro |  |  |  | enhanced ability |
| B1 | stimulated rapid GDP dissociation | stimulated rapid GDP dissociation |  |  |
